PMC9165289, “Theranostic PSMA ligands with optimized backbones for intraoperative multimodal imaging and photodynamic therapy of prostate cancer” (European Journal of Nuclear Medicine and Molecular Imaging, 2022)
Values joined by “and” are separate entries in the source; they are usually repeats but may differ in a detail not shown here. Equal entries are not always repeated. Where two headings read alike, the source gives them in different places.

Assays:
PSMA = target: T1, PSMA (Homo sapiens, UniProt Q04609); test: competitive binding assay using LS174T-PSMA cells
T1 construct: expressed in transfected cells; host or cells: LS174T colon carcinoma cells (LS174T-PSMA)
Source text: Fig. 3 In vitro characterization of [^111In]In-DOTA(GA)-IRDye700DX-PSMA ligands varying in their backbone composition. a Labeling efficiency of [^111In]In-DOTA-PSMA-N01, -N02, -N03, [^111In]In-DOTAGA-PSMA-N064 and -N064inc at a specific activity of either 10 MBq/µg or 30 MBq/µg (n = 2). IC50 values of ligands as determined in competitive binding assays using LS174T-PSMA cells. b Binding and internalization of [^111In]In-DOTA-PSMA-N01, -N02, -N03, [^111In]In-DOTAGA-PSMA-N064 and -N064inc in LS174T PSMA-positive cells. Membrane binding and internalization are corrected for non-specific binding and accumulation, as determined by co-incubation with an excess of 2-PMPA (50 µg). [^111In]In-DOTA-PSMA-617 was added as a positive control. c PSMA-targeted PDT efficacy of ligands in vitro. Cell viability of LS174T-PSMA (PSMA +) and LS174T wildtype (PSMA-) cells following incubation with 30 nM of PSMA-N01, -N02, -N03, -N064, and -N064inc, after either a 100 J/cm^2 (450 mW/cm^2) radiant exposure or no light exposure (dark).

[1] = ex vivo biodistribution of 111In-labeled ligands; design: species or system BALB/c nude mice; details: male, BALB/c nude, mouse, iv, 0.3 nmol, total radioactivity, 2 h p.i.; for tissue uptake at 2 h: 10 MBq/mouse, i.v.
Method: (§1) All animal experiments were approved by the institutional Animal Welfare Committee of the Radboud University Medical Center and were conducted in accordance to the guidelines of the Revised Dutch Act on Animal Experimentation. Animal experiments were performed in 8–10 weeks old male BALB/c nude mice (Janvier). The mice were housed in individually ventilated cages (Blue line IVC, 3–5 mice per cage), under standard non-sterile conditions with cage enrichment present. There was free access to chlorophyll-free animal chow (Sniff Voer) and water. Mice were subcutaneously inoculated with 3.0 × 10^6 LS174T-PSMA cells in the right flank and 1.5 × 10^6 LS174T WT cells in the left flank (diluted in 200-µl RPMI 1640 medium). When xenografts were approximately 0.5 cm^3 (10–14 days after injection), mice were block-randomized into groups based on tumor size. The researchers were not blinded for the experimental groups.
(§2) Mice were intravenously injected with 0.3 nmol PSMA ligand, labeled with 10 MBq ^111In (molar activity 33.3 MBq/nmol) in PBS + 0.5% (w/v) BSA. For the ex vivo biodistribution, five groups (one group for each ligand) of four mice were included. Two hours p.i., all mice were euthanized by CO2/O2-asphyxiation. For two mice of each group (2 mice/ligand), background-subtracted fluorescence images were acquired with the IVIS imaging system (Xenogen VivoVision IVIS Lumina II, PerkinElmer), with a 640-nm excitation filter and a Cy5.5 emission filter and an acquisition time of 10 s. Next, µSPECT/CT imaging was performed in the same two mice per group, with a 1.0-mm diameter pinhole mouse collimator tube (U-SPECT II, MILabs). Mice were scanned for 30 min followed by a CT scan for anatomical reference (spatial resolution 160 μm, 615 μA, 65 kV). MILabs reconstruction software was used to reconstruct the µSPECT/CT scans, via an ordered-subset expectation maximization algorithm, energy windows 154–188 keV and 220–270 keV, 3 iterations, 16 subsets, and voxel size of 0.75 mm. SPECT/CT maximum intensity projections (MIPs) were created using the Inveon Research Workplace software (Siemens Preclinical Solutions, version 4.1). NIR fluorescence images were analyzed using Living Image software (PerkinElmer, version 4.2). After imaging, relevant tissues were dissected, weighed, and measured for radioactivity in a gamma-counter (2480 WIZARD^2 Automatic Gamma Counter, PerkinElmer). In addition, a blocking experiment with PSMA-N064 and PSMA-617 was performed. Full experimental procedures and results can be found in the supplementary data (Page 5, Supplementary Fig. 3).

[2] = system: LS174T-PSMA and LS174T wildtype xenografts; test: ex vivo biodistribution of 111In-labeled ligands; design: species or system BALB/c nude mice; details: 0.3 nmol, 2 h p.i.
Method: as §1, §2

LS174T-PSMA cells = test: in vitro binding and internalization assay; format: cell-based, human; details: 37 °C, 2 h
Method: The binding and internalization characteristics of the ligands were determined using LS174T-PSMA cells. Cells were cultured to confluency in 6-well plates followed by incubation with 50,000 counts per minute of ^111In-labeled ligand (0.1–0.25 pmol/well) in 1-ml RPMI + 0.5% BSA (37 °C, 2 h). Non-specific binding was determined by coincubation with 2(phosphonomethyl)-pentane-1,5-dioic acid (2-PMPA, 21.57 µM). PSMA-specific binding was defined as total binding minus the non-specific binding. To retrieve the membrane-bound fraction, cells were washed twice with PBS and incubated for 10 min at 0 °C with acid buffer (154-mM NaCl, 0.1 M acetic acid, pH 2.6). After incubation, the membrane-bound fraction was collected. Then, cells were washed and lysed with 0.1 M NaOH, and the cell lysate (intracellular activity) was collected. Intracellular and membrane-bound activity fractions were measured in a gamma-counter (2480 WIZARD^2 Automatic Gamma Counter, PerkinElmer).

T1 sequence (Q04609 whole entry): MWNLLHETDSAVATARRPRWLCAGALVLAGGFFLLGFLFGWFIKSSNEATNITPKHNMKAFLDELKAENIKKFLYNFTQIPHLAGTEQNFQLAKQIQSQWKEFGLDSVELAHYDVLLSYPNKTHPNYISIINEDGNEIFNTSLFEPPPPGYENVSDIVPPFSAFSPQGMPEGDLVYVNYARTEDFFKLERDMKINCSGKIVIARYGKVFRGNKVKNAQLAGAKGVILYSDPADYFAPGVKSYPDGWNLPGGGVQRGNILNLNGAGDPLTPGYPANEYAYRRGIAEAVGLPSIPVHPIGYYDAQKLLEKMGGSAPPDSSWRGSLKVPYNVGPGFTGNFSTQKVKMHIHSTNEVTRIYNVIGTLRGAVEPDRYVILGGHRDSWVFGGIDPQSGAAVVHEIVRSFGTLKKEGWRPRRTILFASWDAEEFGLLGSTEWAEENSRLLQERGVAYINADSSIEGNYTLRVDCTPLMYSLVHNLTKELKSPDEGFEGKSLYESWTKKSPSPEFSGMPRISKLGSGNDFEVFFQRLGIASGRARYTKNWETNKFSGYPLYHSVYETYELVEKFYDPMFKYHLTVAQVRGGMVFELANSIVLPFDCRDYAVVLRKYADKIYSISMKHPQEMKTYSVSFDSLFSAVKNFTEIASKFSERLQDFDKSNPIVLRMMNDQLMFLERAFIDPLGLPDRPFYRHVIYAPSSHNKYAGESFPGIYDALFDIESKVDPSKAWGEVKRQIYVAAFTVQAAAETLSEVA

For C[Si](C)(CCC[N+](CCCS(=O)(=O)[O-])(CCCS(=O)(=O)O)CCCS(=O)(=O)O)O[Si]1(O[Si](C)(C)CCC[N+](CCCS(=O)(=O)[O-])(CCCS(=O)(=O)O)CCCS(=O)(=O)O)n2c3c4ccccc4c2N=C2N=C(N=c4c5c(OCCCOC(=O)NCCCCCC(=O)NCCCC[C@H](NC(=O)CN6CCN(CC(=O)O)CCN(CC(=O)O)CCN(CC(=O)O)CC6)C(=O)NCCCC[C@H](NC(=O)[C@H](CCC(=O)O)NC(=O)c6ccccc6)C(=O)NCc6ccc(C(=O)N[C@@H](Cc7ccc8ccccc8c7)C(=O)NCCCC[C@H](NC(=O)N[C@@H](CCC(=O)O)C(=O)O)C(=O)O)cc6)cccc5c(n41)=NC1=NC(=N3)c3ccccc31)c1ccccc12 [PSMA-N01], the IC50 (PSMA) was 44.8 nM and < 50 nM, the tissue uptake at 2 h ([1]; LS174T wildtype tumor, n=4, read-out: Biodistribution Tumor- LS174T) was 1.1 ± 0.2 %ID/g and the tissue uptake at 2 h ([1]; LS174T-PSMA tumor, n=4, read-out: Biodistribution Tumor+ LS174T-PSMA) was 21 ± 3 %ID/g. For the same compound, the tissue uptake at 2 h ([1]; adrenals, n=4, read-out: Biodistribution Adrenals) was 1.8 ± 0.1 %ID/g, the tissue uptake at 2 h ([1]; blood, n=4, read-out: Biodistribution Blood) was 1.1 ± 0.1 %ID/g and the tissue uptake at 2 h ([1]; bone marrow, n=4, read-out: Biodistribution Bone marrow) was 0.3 ± 0.2 %ID/g. It also gave a tissue uptake at 2 h ([1]; bone, n=4, read-out: Biodistribution Bone) of 0.7 ± 0.1 %ID/g, a tissue uptake at 2 h ([1]; duodenum, n=4, read-out: Biodistribution Duodenum) of 0.7 ± 0.1 %ID/g and a tissue uptake at 2 h ([1]; heart, n=4, read-out: Biodistribution Heart) of 0.6 ± 0.1 %ID/g. It also gave a tissue uptake at 2 h ([1]; kidney, n=4, read-out: Biodistribution Kidney) of 90 ± 7 %ID/g, a tissue uptake at 2 h ([1]; liver, n=4, read-out: Biodistribution Liver) of 1.5 ± 0.2 %ID/g and a tissue uptake at 2 h ([1]; lung, n=4, read-out: Biodistribution Lung) of 2.7 ± 0.9 %ID/g. For the same compound, the tissue uptake at 2 h ([1]; muscle, n=4, read-out: Biodistribution Muscle) was 0.2 ± 0.03 %ID/g, the tissue uptake at 2 h ([1]; pancreas, n=4, read-out: Biodistribution Pancreas) was 0.4 ± 0.1 %ID/g and the tissue uptake at 2 h ([1]; prostate, n=4, read-out: Biodistribution Prostate) was 0.6 ± 0.1 %ID/g. The tissue uptake at 2 h ([1]; salivary glands, n=4, read-out: Biodistribution Salivary glands) was 0.8 ± 0.1 %ID/g, the tissue uptake at 2 h ([1]; spleen, n=4, read-out: Biodistribution Spleen) was 2.2 ± 0.4 %ID/g and the tissue uptake at 2 h ([1]; stomach, n=4, read-out: Biodistribution Stomach) was 0.7 ± 0.1 %ID/g. The tissue to tissue ratio at 2 h ([1]; tumor (LS174T-PSMA xenograft) / blood, read-out: Tumor/Blood ratio) was 20 ± 2.5, the tissue to tissue ratio at 2 h ([1]; tumor (LS174T-PSMA xenograft) / kidney, read-out: Tumor/Kidney ratio) was 0.2 ± 0.04 and the tissue to tissue ratio at 2 h ([1]; tumor (LS174T-PSMA xenograft) / liver, read-out: Tumor/Liver ratio) was 14.6 ± 2.4. The tissue to tissue ratio at 2 h ([1]; tumor (LS174T-PSMA xenograft) / spleen, read-out: Tumor/Spleen ratio) was 9.9 ± 1.4, the “Biodistribution Kidney” value ([2]; 10 MBq/mouse, i.v., n=4) was 99.2 ± 11.5 %ID/g and the Tumor/Negative tumor ratio [2] was 19.7 ± 6.5. For the same compound, the Tumor/Prostate ratio [2] was 35.6 ± 4.6, the Tumor/Salivary gland ratio [2] was 27.8 ± 4.8 and the “internalization percentage (percentage of cell-associated ligand that was internalized)” value (LS174T-PSMA cells) was 73–90%.
